Measured values published in article PMC5620043, “A general mechanism of ribosome dimerization revealed by single-particle cryo-electron microscopy” (Nature Communications, 2017).

Molecular target: the molecule itself
Experiment: SEC-MALS; SEC-MALLS, Superdex 200 10/300, 100 mM Tris-HCl, 150 mM NaCl, pH 8.0; protein concentrated to about 4 mg/ml; three batches, two with 10% glycerol

B1: HPF^long from L. lactis with N-terminal Strep-tag (natural protein, UniProt A2RIX0 1-185, looked up)
chain: MIKFNIRGENVEVTDAIRAYVEDKIGKLDKYFNDGHEVTAYVNLKVYTEKRAKVEVTLPAKNVTLRAEDTSQDMYSSIDFVEEKLERQIRKYKTRMNRKPRNAVPTGQVFGDEFAPLDTTDEVAEDHVDIVRTKHVALKPMDAEEAVLQMDMLGHDFYVFTDADSNGTHVVYRRTDGRYGLIETE
notes: HPF^long of Lactococcus lactis, 185 residues, calculated monomer mass 21.3 kDa; also called purified HPF^long; source: overexpressed in L. lactis NZ9000, purified on a Strep-tactin Sepharose column
  stoichiometry N: 2
